Test results published in article PMC6212785, “RGG-box in hnRNPA1 specifically recognizes the telomere G-quadruplex DNA and enhances the G-quadruplex unfolding ability of UP1 domain”.

B1: Tel22ss (ssDNA)
DNA: AGGATTAGGATTAGGATTAGGA
B2: Tel22 G-quadruplex (structured_DNA)
DNA: AGGGTTAGGGTTAGGGTTAGGG

Assays:
UP1 [1] = molecular target: T1, UP1 (UniProt P09651-2 1-196); assay: ITC; 100 mM KCl; ITC/CD: 20 mM Tris-Cl pH 8, 100 mM NaCl or KCl, 25 C; NMR: 10 mM sodium or potassium phosphate pH 6.5, 100 mM NaCl or KCl, 298 K; conditions: protein: recombinant, tags: C-terminal 6xHis (pET28a), chain copies: 2
T1 sequence (P09651 1-196): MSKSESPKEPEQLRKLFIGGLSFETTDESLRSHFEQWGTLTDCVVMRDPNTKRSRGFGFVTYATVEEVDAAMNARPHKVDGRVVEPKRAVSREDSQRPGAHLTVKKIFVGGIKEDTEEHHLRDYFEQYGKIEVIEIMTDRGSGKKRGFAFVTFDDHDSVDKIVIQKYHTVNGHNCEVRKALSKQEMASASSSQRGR

UP1+RGG [2] = molecular target: T2, UP1+RGG (UniProt P09651-2 1-249); assay: as above; conditions: protein: recombinant, tags: C-terminal 6xHis (pET28a), chain copies: 2
T2 sequence (P09651 1-249): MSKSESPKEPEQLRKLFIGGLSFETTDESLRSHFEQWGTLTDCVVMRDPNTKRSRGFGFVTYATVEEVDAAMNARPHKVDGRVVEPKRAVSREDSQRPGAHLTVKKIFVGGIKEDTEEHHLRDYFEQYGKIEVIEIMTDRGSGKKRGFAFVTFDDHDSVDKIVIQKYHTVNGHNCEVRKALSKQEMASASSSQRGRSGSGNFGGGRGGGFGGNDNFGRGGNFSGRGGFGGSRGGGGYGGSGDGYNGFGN

UP1 [3] = molecular target: T1, UP1; assay: ITC; 100 mM NaCl; ITC/CD: 20 mM Tris-Cl pH 8, 100 mM NaCl or KCl, 25 C; NMR: 10 mM sodium or potassium phosphate pH 6.5, 100 mM NaCl or KCl, 298 K; conditions: protein: recombinant, tags: C-terminal 6xHis (pET28a), chain copies: 2
UP1+RGG [4] = molecular target: T2, UP1+RGG; assay: as above; conditions: protein: recombinant, tags: C-terminal 6xHis (pET28a), chain copies: 2
RGG-box = RGG-box (UniProt P09651-2 197-249); assay: NMR 15N-1H HSQC titration; apparent Kd, global fit of 14 residues (individual 151-433 uM); ITC/CD: 20 mM Tris-Cl pH 8, 100 mM NaCl or KCl, 25 C; NMR: 10 mM sodium or potassium phosphate pH 6.5, 100 mM NaCl or KCl, 298 K; conditions: protein: recombinant; tags: N-terminal GST removed by TEV; intramolecular G4 (monomeric)
Sequence of RGG-box (P09651 197-249): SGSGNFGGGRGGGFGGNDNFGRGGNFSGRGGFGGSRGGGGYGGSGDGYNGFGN

| Binder | Kd (UP1 [1]; single strand) [nM] | Kd (UP1+RGG [2]; single strand) [nM] | Kd (UP1 [3]; single strand) [nM] | Kd (UP1+RGG [4]; single strand) [nM] | Kd (UP1 [1]; intramolecular G4 (monomeric)) [nM] | Kd (UP1+RGG [2]; intramolecular G4 (monomeric)) [nM] | Kd (RGG-box) [nM] | Kd (UP1 [3]; intramolecular G4 (monomeric)) [nM] | Kd (UP1+RGG [4]; intramolecular G4 (monomeric)) [nM] |
| --- | --- | --- | --- | --- | --- | --- | --- | --- | --- |
| B1 | 1230 ± 140 | 1110 ± 150 | 1200 ± 310 | 1040 ± 150 | – | – | – | – | – |
| B2 | – | – | – | – | 5620 ± 1090 | 4850 ± 600 | 349000 ± 35000 | 710 ± 140 | 600 ± 130 |
